Data published in the supplement of paper PMC9112550, “Optimization of the antimicrobial peptide Bac7 by deep mutational scanning” (BMC Biology, 2022).

Test system: Escherichia coli TOP10
Assay: shrunken log2 fold change of peptide-encoding DNA abundance (4.5 h post-induction vs induction); higher = less antimicrobial activity (less host growth inhibition)
Settings: time post-induction: 4.5 h; library: site-saturation at positions 5, 18, 19, 20
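Also: peptides expressed intracellularly from a pBAD plasmid library in pooled LB shake-flask culture, induced with 0.3% L-arabinose, DNA abundance read by NGS, three biological replicates, DESeq2 with apeglm shrinkage.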

| Sequence | shrunken log2 fold change |
| --- | --- |
| RRIRERPPRLPRPRPRPLEKPRP | 0.094 |
| RRIRERPPRLPRPRPRPLFNPRP | -0.62 |
| RRIRERPPRLPRPRPRPLGTPRP | -0.0681 |
| RRIRERPPRLPRPRPRPLHAPRP | -0.0579 |
| RRIRERPPRLPRPRPRPLHNPRP | -0.388 |
| RRIRERPPRLPRPRPRPLHSPRP | -0.0649 |
| RRIRERPPRLPRPRPRPLIEPRP | -0.287 |
| RRIRERPPRLPRPRPRPLKPPRP | -0.16 |
| RRIRERPPRLPRPRPRPLKVPRP | -0.0726 |
| RRIRERPPRLPRPRPRPLKYPRP | -0.38 |
| RRIRERPPRLPRPRPRPLMCPRP | -0.267 |
| RRIRERPPRLPRPRPRPLMEPRP | 0.0296 |
| RRIRERPPRLPRPRPRPLMFPRP | -0.32 |
| RRIRERPPRLPRPRPRPLQLPRP | -0.33 |
| RRIRERPPRLPRPRPRPLQRPRP | -0.131 |
| RRIRERPPRLPRPRPRPLQVPRP | -0.384 |
| RRIRERPPRLPRPRPRPLRVPRP | 0.269 |
| RRIRERPPRLPRPRPRPLSVPRP | -0.642 |
| RRIRERPPRLPRPRPRPLTFPRP | -0.693 |
| RRIRERPPRLPRPRPRPLTKPRP | -0.0153 |
| RRIRERPPRLPRPRPRPLVEPRP | -0.229 |
| RRIRERPPRLPRPRPRPLVTPRP | 0.503 |
| RRIRERPPRLPRPRPRPMAEPRP | 0.0131 |
| RRIRERPPRLPRPRPRPMEYPRP | -0.00776 |
| RRIRERPPRLPRPRPRPMFDPRP | -0.121 |

| Sequence | shrunken log2 fold change |
| --- | --- |
| RRIRERPPRLPRPRPRPMFVPRP | -0.285 |
| RRIRERPPRLPRPRPRPMIDPRP | -0.28 |
| RRIRERPPRLPRPRPRPMIGPRP | 0.015 |
| RRIRERPPRLPRPRPRPMIIPRP | -0.317 |
| RRIRERPPRLPRPRPRPMKAPRP | -0.00245 |
| RRIRERPPRLPRPRPRPMKFPRP | -0.0657 |
| RRIRERPPRLPRPRPRPMLRPRP | -0.0352 |
| RRIRERPPRLPRPRPRPMLYPRP | -0.222 |
| RRIRERPPRLPRPRPRPMNAPRP | -0.259 |
| RRIRERPPRLPRPRPRPMNEPRP | -0.0835 |
| RRIRERPPRLPRPRPRPMPMPRP | -0.0464 |
| RRIRERPPRLPRPRPRPMQVPRP | -0.32 |
| RRIRERPPRLPRPRPRPMQYPRP | -0.271 |
| RRIRERPPRLPRPRPRPMRVPRP | 0.501 |
| RRIRERPPRLPRPRPRPMSCPRP | -0.206 |
| RRIRERPPRLPRPRPRPMSEPRP | 0.0552 |
| RRIRERPPRLPRPRPRPMSNPRP | -0.16 |
| RRIRERPPRLPRPRPRPMSSPRP | -0.000155 |
| RRIRERPPRLPRPRPRPMTGPRP | -0.0422 |
| RRIRERPPRLPRPRPRPMVAPRP | 0.138 |
| RRIRERPPRLPRPRPRPMVQPRP | 0.00276 |
| RRIRERPPRLPRPRPRPMVRPRP | -0.019 |
| RRIRERPPRLPRPRPRPNASPRP | -0.0996 |
| RRIRERPPRLPRPRPRPNAVPRP | -0.407 |
| RRIRERPPRLPRPRPRPNCGPRP | -0.26 |

| Sequence | shrunken log2 fold change |
| --- | --- |
| RRIRERPPRLPRPRPRPNCLPRP | -0.297 |
| RRIRERPPRLPRPRPRPNDWPRP | -0.133 |
| RRIRERPPRLPRPRPRPNEHPRP | -0.445 |
| RRIRERPPRLPRPRPRPNFIPRP | -0.442 |
| RRIRERPPRLPRPRPRPNGFPRP | 0.0354 |
| RRIRERPPRLPRPRPRPNHEPRP | 0.0522 |
| RRIRERPPRLPRPRPRPNKAPRP | 0.12 |
| RRIRERPPRLPRPRPRPNKCPRP | -0.522 |
| RRIRERPPRLPRPRPRPNKFPRP | -0.143 |
| RRIRERPPRLPRPRPRPNLDPRP | -0.289 |
| RRIRERPPRLPRPRPRPNLSPRP | -0.15 |
| RRIRERPPRLPRPRPRPNNIPRP | -0.787 |
| RRIRERPPRLPRPRPRPNPMPRP | -0.211 |
| RRIRERPPRLPRPRPRPNPYPRP | -0.304 |
| RRIRERPPRLPRPRPRPNQTPRP | -0.13 |
| RRIRERPPRLPRPRPRPNRCPRP | -0.00988 |
| RRIRERPPRLPRPRPRPNRKPRP | -0.0495 |
| RRIRERPPRLPRPRPRPNRMPRP | -1.36 |
| RRIRERPPRLPRPRPRPNSLPRP | 0.0427 |
| RRIRERPPRLPRPRPRPNTIPRP | -0.45 |
| RRIRERPPRLPRPRPRPNVPPRP | -0.0158 |
| RRIRERPPRLPRPRPRPNWHPRP | -0.185 |
| RRIRERPPRLPRPRPRPNYKPRP | -0.722 |
| RRIRERPPRLPRPRPRPPAGPRP | 0.589 |
| RRIRERPPRLPRPRPRPPDWPRP | 0.674 |
